Data: the DeepSol protein solubility set

Assay: soluble on expression in E. coli; label from the status in PepcDB or PDB records

**Q.** Which “soluble on expression in E. coli” value does the source give for “MISILYDEIVSCSRCERLIEYRKNFKIPPRFKDWNYWNKPVPGFGDEKAKILIVGLAPALHGGNRTGRVFTGDESGKWVIKGLYALGLSNKEEGKTREDGLEVKEVYLTNTVKCAPPKNKPTREEISNCSRFLIEEIKSLRIKVILALGRIAFDTILSLYGIKSKFYHGVVIKLPDDKILIGSYHPSAQNTKTGRLKWEDWIKILKLAYEIANNPQY” here?
**A.** soluble

**Q.** With “MISRTQRLLSLSTAMLLATTAAAVAEPSEELIAAAKKEGTLTTIALPHNWCGYGDVIAGFKAKYGIEVNELNPDAGSGDEIEAIKANKGNTGPQAPDVIDVGLSFGPSAKAEGLIQPYKVSTWDTIPDTAKDPEGYWYGDYYGVLSFVVNTDIVKDVPKDWADLKKSDYANSVALAGDPRASNQAVQAVYAAGLAAGETDAAKAGEAGLAFFAEVNKAGNFVPVIGKSASLAQGSTPIIIAWDYNGLSWRDSLNGNPPVEVVVPASGVVAGVYVQAISAFAPHPNAAKLWMEYLYSDEGQLGWLKGYCHPIRFNDLVKNGKVPKEMLDKLPPAESYEKAVFPTLDEQAKGKEAITTKWDSVVGASVQ” as the sequence, how does the “soluble on expression in E. coli” value read?
**A.** not soluble

**Q.** Which “soluble on expression in E. coli” value does the source give for “MISSIRLDLFRTKVFVMPLKFPLSICLLGTFLVTSAQAQEAVKGVVELFTSQGCASCPPADEALRKMIQKGDVVGLSYHVDYWNYLGWTDSLASKENTERQYGYMRALGRNGVYTPQAILNGRDHVKGADVRGIYDRLDAFKREGQGLNVPVSSKFAGDEVEIDIGAGNGKADVVVAYFTREQTVDVQKGENQGKKMSYWHSVYDVQTVGMWDGSPMTVKLPASVVAKVKKGGCAVLLQTANASGDPAAIVGASILLGNETQLEHHHHHH” here?
**A.** soluble

**Q.** For “MISVTDLRPGTKVKMDGGLWECVEYQHQKLGRGGAKVVAKFKNLETGATVERTFNSGEKLEDIYVETRELQYLYPEGEEMVFMDLETYEQFAVPRSRVVGAEFFKEGMTALGDMYEGQPIKVTPPTVVELKVVDTPPGVRGDTVSGGSKPATLETGAVVQVPLFVEPGEVIKVDTRTGEYVGRA”, which “soluble on expression in E. coli” value is on record?
**A.** soluble

**Q.** Which “soluble on expression in E. coli” value does the source give for “MITAERYHDISMGHRVVGHDHKCRHLHGHNYRIHFICSAPALDSIGRVVDFGVIKELLCQWLEDHWDHKMMLWEQDPLLPALRATVPDDLVAVPFNPTAENMAVYLTEVVGPMQLAGTGVTLIGCRVDETRKCSASYTL” here?
**A.** not soluble

**Q.** For “MITTFETILDKIKAHQTIIIHRHQNPDPDALGSQAGLKEIIAQNFPDKKVLMTGFDEPSLAWISQMDQVTDKDYKEALVIITDTANRPRIDDERYTLGKCLIKIDHHPNDDVYGDFYYVDTSASSASEIIADFAFSQNLTLSDKAAKLLYTGIVGDTGRFLYASTTSKTLSIASQLRHFEFDFAAISRQMDSFPLKIAKLQSYVFEHLTIDESGAAYVLVSQETLKHFDVTLAESSAIVCAPGKIDNVQAWAIFVELTDGNYRVRMRSKEKIINGIAKRHGGGGHPLASGANSANLEENQAIFRELIAVCQEILEHHHHHH”, which “soluble on expression in E. coli” value is on record?
**A.** soluble

**Q.** With “MITVVIASRLREDRLDYLTAMHASLTRQSVPWEAVIALDGASPDRLPRQLAQDPRVDTLVLPRPVGAACARNLALTQVRTRYVNWADDDDEFTDDAMSVRLETLESTGVGWCAGWSEDQFRDGSTRLWRCPTPPGRHEAGDVWTFWKSPADTIPIGPTTILARTDLVRAAPMGGLVQGEDYCAALGVTALAPGILLPLPVYRYRKWGGQMTAQDGYDQLETAAREHAWAYGRSLRAVLRGGEDLVHVLEHHHHHH” as the sequence, how does the “soluble on expression in E. coli” value read?
**A.** not soluble

**Q.** Which “soluble on expression in E. coli” value does the source give for “MITYYVRQLKTFSIMSLTLSNVILHKLVKNEQDELEVCLRNQTLENEEFTEALVSELHRVFNSKAGKGFGVFKTESEFGHWLSSVRKNETPFLEFSNNSAEKLKSELIKYPFAEEGILVIAEYQSLATEYLFVAVLPSNESMKVTEQLDISATDYLDIAKMDIAARIDLSTWETDSDSNRYLTFIKGRVGRKVSDFFLDFLQADVGMDTKVQNQVLMQAVEDFCADERLDQEEKQPYRKQVYDYCNGQLQAGEELTVKELASELPTSESGSNFYQFAEEQGYELEESFPVDRTALRKLTKFVGAGGGLSLNFDAMLLGERVFYDPETDTLTIKGTPPNLKDQLEHHHHHH” here?
**A.** not soluble

**Q.** For “MIVAFENNVVCSDEKVRDYLLAHHADLKEDQDEDALCLVRLHKEEDIDGTDRVDLAGWREISRELYWTGEQMECNYSIIRFSRKTTSLQMSVVLSTCNQLEWLEKVLWGYEAQDTKNFELIIADDGSRKETYDMLQRITPQLSFQVKHVWHEDKGFRKCDILNKGILAAQADYLLFSDGDCIPRKDFVSTHLCLRRKGRFLSGGYHKLSMDLSKDITKDDILSGRCFDLQWMRGKGMPASFKNNKLTATGFKRWALNTFTPTKASWNGHNASGWLSDILAVNGFDERMQYGGQDREFGERLENYGIHGMQIRYSTVCLHLDHARGYKTKDSIQKNRNIRKHTRGAKVQWASLGIVKDELRGQSVKVNSYYDRYTREEEKLTSYKEKGGFYRHIYSLPCRWRRAKYHDKVVRAYQQDTDAPALSNHSGVIVSLTTFPPRISQLHLMLKSILWQTCPPEKIIVWLSEQEFPGRLNDLPEELKRLMAKGIAFRFVSENFRSHKKYHYVFREYPDSKVITVDDDLIYPRNTVERLLSLSYQYPDTVCGNVIRKIHMDGNSFSVYRKWTKVFTMPVNSSLQNVAIGCGGIYYPPHWYGEELFDWKIISEHCPSADDLWLKANELKRRVKVTGGGEFYPRPIELPQTQNNSLQKKNNGKTNLNDKQWKSLNELWKLDELYCINGK”, which “soluble on expression in E. coli” value is on record?
**A.** not soluble

**Q.** For “MIVFSDLDRSIIYSNKFLNADSKYANIEIYREKEISYISLDTINLIKQIQYYGMFIPTTTRTVEQFKRIEFNKYGIYFPWSITSNGGVILKDNEILKSWSEKIDKLKSNYEPIESMIHKFKDYLNVDGITNFKVAEDTFFYIVVDLSRFNLDSIKEYTNILESKNWKFYVSGRKIYFIPKEISKENAIKYLTKELGIEYFYAVGDSIMDYGMLNISNKSYVLKHGDINKNEIENSFISSSFNGMSGTEEILSNILDENCLLNI”, which “soluble on expression in E. coli” value is on record?
**A.** not soluble

**Q.** With “MIVLGIESSCDETGVGIIDLADDGTMTIVGDAVASSMEQHARFGGVVPEIASRAHLESMIPVMKEALAQAGVERPDAVAATVGPGLAGALLVGASAAKAYAAAWGVPFYGVNHLGGHVAVANLEGEELPHSIALLVSGGHTQILEVQAVGKPMRELGSTLDDAAGEAYDKVARLLGLGYPGGPVVDKLAARGNRKAIRFPRGLSRADDLRGEHRYDFSFSGVKTSVARYVESAEREGRVISVEDVCASFQEAVVDVLTSKAIMACKDTGASVLLLGGGVAANSRLRELAAARCQSASIELRVPSFKLCTDNGVMIAAVASQLIHEGAQPSGLSVGTDTSLEVEIPLVHSL” as the sequence, how does the “soluble on expression in E. coli” value read?
**A.** not soluble

**Q.** For “MIVSILGAGAMGSALSVPLVDNGNEVRIWGTEFDTEILKSISAGREHPRLGVKLNGVEIFWPEQLEKCLENAEVVLLGVSTDGVLPVMSRILPYLKDQYIVLISKGLIDFDNSVLTVPEAVWRLKHDLRERTVAITGPAIAREVAKRMPTTVVFSSPSESSANKMKEIFETEYFGVEVTTDIIGTEITSALKNVYSIAIAWIRGYESRKNVEMSNAKGVIATRAINEMAELIEILGGDRETAFGLSGFGDLIATFRGGRNGMLGELLGKGLSIDEAMEELERRGVGVVEGYKTAEKAYRLSSKINADTKLLDSIYRVLYEGLKVEEVLFELATFK”, which “soluble on expression in E. coli” value is on record?
**A.** soluble

**Q.** Which “soluble on expression in E. coli” value does the source give for “MIVSSLRGGLGNQMFIYAMVKAMALRNNVPFAFNLTTDFANDEVYKRKLLLSYFALDLPENKKLTFDFSYGNYYRRLSRNLGCHILHPSYRYICEERPPHFESRLISSKITNAFLEGYWQSEKYFLDYKQEIKEDFVIQKKLEYTSYLELEEIKLLDKNAIMIGVRRYQESDVAPGGVLEDDYYKCAMDIMASKVTSPVFFCFSQDLEWVEKHLAGKYPVRLISKKEDDSGTIDDMFLMMHFRNYIISNSSFYWWGAWLSKYDDKLVIAPGNFINKDSVPESWFKLNVRMAGDPLEHHHHHH” here?
**A.** not soluble

**Q.** For “MIVTKDYSKESRVNENSKYGTLISDWYLKGRLTSLESQFINALDILETYHYGEKEYKDAKDKLMTRILGEDQYLLERKKVQYEEYKKLYQKYKEENPTSKLKLKTFDQYTIEDLTMREYNELTESLKSAVKDFEKDVEKIENQHHDLKPFTDEMEEKATSRVDDLANKAYSVYFAFVRDTQHKTEALELKAKVDLVLGDEDKPHRISNERIEKEMIKDLESIIEDFFIETGLNKPGNITSYDSSKHHYKNHSEGFEALVKETREAVANADESWKTKTVKKYGESETKSPVVKEENKVEDPQSPKFDNQQEVKTTAGKAEETTQPVAQPL”, which “soluble on expression in E. coli” value is on record?
**A.** soluble

**Q.** With “MIVVLKMGADKNEVKKLIEAIGREGVEVNPIDGTELTVLGLVGDTSKIDAKRIEANKVVEKVMHVVEPFKKANRKFHPEPSIINVNGMEIGSKKIAMIAGPCSVETEDQIVSIAKDVKKSGAGFLRGGAFKPRTSPYAFQGLKYDGLDLLKKAKEKTGLPIVTEIMSTQDIDIFEENVDVIQVGARNMQNFDLLKELGKTNKTILLKRGLSATIEEWLMSAEYIMAGGNENVVLCERGIRTFETYTRNTLDLSAILAVKKLSHLPVIVDPSHAAGKSWMVDSLSKAAIAVGADGLIIEVHNDPAHALCDGKQSIKPNEYDELISELKTIASAVGREI” as the sequence, how does the “soluble on expression in E. coli” value read?
**A.** not soluble

**Q.** With “MIYQPDENRYHTMEYRRCGRSGVKLPAISLGLWHNFGDTTRVENSRALLQRAFDLGITHFDLANNYGPPPGSAECNFGRILQEDFLPWRDELIISTKAGYTMWDGPYGDWGSRKYLIASLDQSLKRMGLEYVDIFYHHRPDPETPLKETMKALDHLVRHGKALYVGISNYPADLARQAIDILEDLGTPCLIHQPKYSLFERWVEDGLLALLQEKGVGSIAFSPLAGGQLTDRYLNGIPEDSRAASGSRFLKPEQITADKLEKVRRLNELAARRGQKLSQMALAWVLRNDNVTSVLIGASKPSQIEDAVGMLANRRFSAAECAEIDAILEGRF” as the sequence, how does the “soluble on expression in E. coli” value read?
**A.** not soluble

**Q.** Which “soluble on expression in E. coli” value does the source give for “MKALNLKTPGREDDDVDEVLDENTVQDVNENIMLKGLGGKENLQTIDHCATRLRLTVKDTALVDEALLKKAGAKGVVKSGGQSVQVIIGPNVEFAAEELRAAVK” here?
**A.** not soluble

**Q.** With “MKANRWFGMAQPKSGKMNMNILHQEELIAQKKREIEARMEQKARQSHVPSPQPPHPGEIADAHNSCISNKFANDGSFLQQFLKLQKAQTSTDSAPRAPPSMPTPSSLKKPLVLSKRTGLGLSSPTGPVKNYSHAKQLPVAHRPSVFQSPDDDEEEDYEQWLEIKVSPPEGAETRRVIEKLARFVAEGGPELEKVAMEDYKDNPAFTFLHDKNSREFLYYRRKVAEIRKEAQKPQAATQKVSPPEDEEAKNLAEKLARFIADGGPEVETIALQNNRENQAFSFLYDPNSQGYRYYRQKLDEFRKAKAGSTGSFPAPAPNPSLRRKSAPEALSGAVPPITACPTPVAPAPAVNPTPSIPGKPTATAAVKRKRKSRWGPEEDKVEFHLLNWHRGT” as the sequence, how does the “soluble on expression in E. coli” value read?
**A.** soluble

**Q.** Which “soluble on expression in E. coli” value does the source give for “MKAPELLLPAGGLERMRAAYDYGADAVYAGSPRYSLRARNNEFAKLDVLEQGIKEAHERNKKFFLTVNTLPHNSKLKTFVADMEPLIAMKPDALIMADPGLIMTVREKWPEMPIHLSVQANTTNYWGVKFWQNIGVERIILSRELSMEEIAEIRQECPDIELEVFIHGALCIAYSGRCLLSGYFNHRDPNQGTCTNSCRWDYKVHNATESDAGDAQLLQGFNFEKAQEEANQNFEGINGQKRHPYADKVFLIEESNRPGEMMPIMEDEHGTYIMNSKDLRGIEVVEKLAKIGVDSLKVEGRTKSLYYVARVAQSYRKAIDDAVAGRPFDYSLLSELEGLANRGYTSGFLERHQTQDYQNYLTGHSTAKQSQYVGHVTEIDENGWATVEVKNRFAVSDSLEIIHPSGNQTIKLEQMTRKGQPVDVAPGNGIQVKIPNMQGKEKALIARVLNP” here?
**A.** not soluble

**Q.** Which “soluble on expression in E. coli” value does the source give for “MKASFKGKFDVDKSGSVASLTFNAGNAKLRATMTDASFVAGPSFNGLSLAVEKPGFFIIDYNVPKKDVRFQFMNTIRIAEKPLNLTYIHMRGDNRTIVDGSFVIDPANKLSANYMVGTKNCKLKYTYVHGGIATFEPCYDVAKNMWDFAISHKLYGGDNLKATYQTSSKMLGLEWSNNSKSTGSFKVCASMNLAEELKPPKLTAETTWNLEL” here?
**A.** soluble
